The values below come from US20030216297A1, “Pharmaceutical composition” (SANKYO COMPANY, LIMITED, priority 2002, published 2003).

Tested on in one data set: not listed separately
The data set is described as follows: Degree of adsorption to a heparin cross-linked column. In kind it is physicochemical. The settings on record: applied and washed with 0.7 M NaCl, eluted with 2 M NaCl in 10 mM sodium phosphate buffer; OCIF by ELISA. The source says: A preferred feature of the complexes used in the present invention that can be used to characterise them is their affinity to heparin. Heparin is a polysaccharide comprising D-glucosamine, D-glucuronic acid and D-iduronic acid which is partially or fully derivatised with sulfate and acetyl groups. A preferred feature of the complexes employed in the present invention is that the strength of adsorption of said complex of OCIF or an anlogue or variant thereof to heparin is lower than the strength of adsorption of the free, non-complexed OCIF or analogue or variant thereof. The degree of adsorption can be determined using a column packed with highly cross-linked. linked agarose beads on which has been immobilized heparin (e.g. heparin obtained from bovine intestinal mucosa). Suitable columns of this type include HiTrap heparin HP column, HiPrep 16/10 Heparin and Heparin Sepharose (all obtainable from Amersham Pharmacia). The strength of adsorption (the affinity) of the complex can be determined according to any suitable method that is well known to the person skilled in the art for determining the affinity of proteins to polysaccharides. […] Thus, typically the degree of adsorption of the complex to heparin can be determined as follows:
(a) A column packed with a support such as cross-linked agarose beads on which has been immobilized heparin is equilibrated with a buffer having a relatively low ionic strength (e.g. sodium phosphate buffer containing 0.1-0.8 M sodium chloride).
(b) The complex of the present invention that is being tested is dissolved in the same low ionic strength buffer as used in (a) and applied to the column and a first eluate is then collected (fraction A).
(c) The column is then washed further with the same low ionic strength buffer as used in step (a) and a second eluate is collected (fraction B).
(d) The column is then washed with a buffer having a relatively high ionic strength (e.g. sodium phosphate buffer containing 1.0-2.0 M sodium chloride) and a third eluate is then collected (fraction C).
(e) The amount of the complex present in each of fractions A, B and C [designated (α), (β) and (γ) respectively] is then determined (e.g. by an immunoassay).
(f) The degree of adsorption of the complex to heparin is then determined according to the following formula: [formula]
The degree of adsorption of the complexes of the present invention as measured by the above formula will vary to some extent depending upon the type of heparin column and the conditions under which the determination is carried out.
A heparin cross-linked column (HiTrap Heparin HP column, Lot. 289212, Amersham Bioscience) was pre-equilibrated with 5 ml of 10 mM sodium phosphate buffer containing 0.7 M sodium chloride. A preparation from Table 1 of Preparation Example 1 was taken and diluted to a final protein concentration of 0.1 mg/ml with 10 mM sodium phosphate buffer containing 0.7 M sodium chloride. 1 ml of the diluted solution thus obtained was applied to said column and 1 ml of a first eluate was collected (fraction A). Next, 5 ml of 10 mM sodium phosphate buffer containing 0.7 M sodium chloride were applied to said column and 5 ml of a second eluate were collected (fraction B). Finally, 4 ml of 10 mM sodium phosphate buffer containing 2M sodium chloride were applied to said column and 4 ml of an eluate were collected (fraction C).
100 μL of 0.1 M sodium hydrogen carbonate (pH 9.6), in which was dissolved an anti-human OCIF monoclonal antibody OI-19 (FERM BP-6420) at a concentration of 10 μg per ml, were transferred to each well of a 96-well microtitre plate (Maxisorp: NUNC Co Ltd.). The plate was sealed and then incubated at 4° C. overnight. At the end of this incubation time, the solution in each well was removed by decantation, 300 μL of 50% Block Ace (purchased from Dainippon Pharmaceutical Co., Ltd.) were added to each well, and then the plate was incubated at room temperature for 2 hours. […]
On the technique in general: ELISA stands for enzyme-linked immunosorbent assay.
As for “Prep. 25: OCIF/DS5 complex: DS5 130 mg/ml, OCIF 6.5 mg/ml, 4 °C, pH 10.5, 24 h”, the “The degree of adsorption of the OCIF/DS complex to a heparin cross-linked column” value worked out at 0.611.
The same measure, in the same setting: the same measure for “Prep. 22: OCIF/DS5 complex: DS5 150 mg/ml, OCIF 5 mg/ml, 7 °C, pH 10.5, 168 h”: 0.264; for “Prep. 24: OCIF/DS5 complex: DS5 150 mg/ml, OCIF 5 mg/ml, 25 °C, pH 10, 24 h”: 0.072.
On the same count and under the same terms, the same measure for “Prep. 8: OCIF/DS5 complex: DS5 130 mg/ml, OCIF 6.5 mg/ml, 4 °C, pH 10.5, 288 h”: 0.153; for “Prep. 27: OCIF/DS5 complex: DS5 150 mg/ml, OCIF 5 mg/ml, 4 °C, pH 10.5, 144 h”: 0.141.
The same measure, in the same setting: the same measure for “Prep. 7: OCIF/DS5 complex: DS5 130 mg/ml, OCIF 6.5 mg/ml, 4 °C, pH 10.5, 144 h”: 0.183; for “Prep. 6: OCIF/DS5 complex: DS5 130 mg/ml, OCIF 6.5 mg/ml, 4 °C, pH 10.5, 48 h”: 0.451.

Another data set relates to adjuvant-arthritis Lewis rat. As to the kind of experiment: Adjuvant arthritis in Lewis rats, femur bone mineral density: OCIF complex with loxoprofen sodium. Format: in vivo. The following applies: distal ends of femurs, day 21 after adjuvant; loxoprofen sodium 5 mg/kg p.o. and/or Preparation 11 0.1 mg/kg i.p. daily, days 14 to 20. As to the method:
This example was carried out according to the method described in C. V. Winder, et al. Arthritis Rheum 12 472 (1957). Heat-killed cells of Mycobacterium butyricum were pulverized in an agate mortar and then suspended in liquid paraffin sterilized with hot air to give a suspension having a cellular concentration of 2 mg/ml. This suspension was then subjected to ultrasonication so as to produce an adjuvant. 50 μl of the obtained adjuvant were injected intradermally at each of two sites in the base of the tail of a Lewis rat (eight-weeks old, female) (200 μg in total per rat), to induce arthritis in said rat. […] As a control, instead of the loxoprofen sodium, OCIF complex Preparation 11 or a combination thereof, only the solvents used for dissolving them were administered to the rat. […] The bone mineral densities of the distal ends of the right-and-left femurs were measured using an X-ray measurement apparatus (Dual energy X-ray absorptiometry DCS-600R, manufactured by Aroka Co., Ltd.), and the average of each of the measured values was calculated, and was defined as the bone mineral density of the individual. In order to evaluate the differences between the averages of the bone mineral densities of each group, significant difference was tested by Student's t-test, and the P value was calculated.
With “Prep. 11: OCIF/DS5 complex: DS5 100 mg/ml, OCIF 5 mg/ml, 4 °C, pH 10.5, 18 h”, the “Bone mineral density (average ± standard error)” value is on record as 109.6 ± 2.1 mg/cm^2.
As to `CC(C(=O)O)c1ccc(CC2CCCC2=O)cc1` (stereo not shown) [Loxoprofen sodium, loxoprofen sodium, reference compound], the “Bone mineral density (average ± standard error)” value was 106.5 ± 0.8 mg/cm^2.

Tested on in another data set: not listed separately
As to the kind of experiment: Measurement of isoelectric point by isoelectric electrophoresis gel. Format: physicochemical. The following applies: IEF PAGE mini gel, pH range 3 to 10, compared with pI markers. The source says:
The isoelectric point can be measured using any conventional isoelectric electrophoresis technique well-known to the skilled person in the art. OCIF is a basic protein and the isoelectric point thereof is about pI 9. […] Therefore, it is possible to readily distinguish complexed and uncomplexed OCIF using this technique.
The purified recombinant dimeric human OCIF, prepared as described in Preparation Example 1(a) above and the complex of OCIF and dextran sulfate prepared in Preparation Example 1(b) above which is designated Preparation Number 22 in Table 1 were applied separately to an isoelectric electrophoresis gel IEF PAGE mini (pH range of 3 to 10, manufactured by Iwaki Glass), using an IEF pH 3-7 buffer kit (Technical Frontier Co.) and a voltage was applied to the gel according to the following regime: 100 V for 1 hour, followed by 200 V for 1 hour and finally 500 V for 30 minutes. After completion of the electrophoresis, the resultant gel obtained in each case was stained with Coomassie Blue.
From the electrophoresis gels obtained above, it was determined that the isoelectric point of the dimeric human OCIF was about pI 9, and the isoelectric point of the complex of OCIF and dextran sulfate designated Preparation Number 22 was about pI 6.5 by comparing the band position of OCIF and that of the OCIF complex with pI markers.
“Prep. 22: OCIF/DS5 complex: DS5 150 mg/ml, OCIF 5 mg/ml, 7 °C, pH 10.5, 168 h”: the “isoelectric point (pI)” value is ~6.5.
Still for that read-out and setting: next, “OCIF: recombinant dimeric human osteoclastogenesis inhibitory factor, molecular weight about 120000, non-complexed”: ~9.

The test system of the next data set is adjuvant-arthritis Lewis rat. The data set is described as follows: Adjuvant arthritis in Lewis rats, femur bone mineral density: OCIF complex with celecoxib. The settings on record: distal ends of femurs, day 21 after adjuvant; celecoxib 1 mg/kg p.o. and/or Preparation 22 3.5 mg/kg i.p. daily, days 14 to 20. Format: in vivo. As to the method: Arthritis was induced in test groups of Lewis rats (eight-weeks old, female) according to the same procedure described in Example 2 above.
From the 14th to 20th days after injection of the adjuvant, celecoxib [Thomas D, P., et al., J. Med. Chem., 40, 1347-1365 (1997); WO-A-95/15316] suspended in a 0.5% tragacanth aqueous solution (manufactured by Nihon Funmatsu Yakuhin Co., Ltd.) at a concentration of 0.2 mg/ml was orally administered to each rat of one test group at a rate of 5 ml/kg each day so that the dose of […] administered was 1 mg/kg body weight. […]
Each rat was dissected on the 21 st day after injection of the adjuvant, and the right-and-left femurs were extracted. The bone mineral densities of the distal ends of the right-and-left femurs were measured using an X-ray measurement apparatus (Dual energy X-ray absorptiometry DCS-600R, manufactured by Aroka Co., Ltd.), and the average of each of the measured values was calculated, and was defined as the bone mineral density of the individual.
In order to evaluate the differences between the averages of the bone mineral densities of each group, significant difference was tested by Student's t-test, and the P value was calculated.
As for “Prep. 22: OCIF/DS5 complex: DS5 150 mg/ml, OCIF 5 mg/ml, 7 °C, pH 10.5, 168 h”, the “Bone mineral density (average ± standard error)” value is 104.2 ± 2.1 mg/cm^2.
With `Cc1ccc(-c2cc(C(F)(F)F)nn2-c2ccc(S(N)(=O)=O)cc2)cc1` [Celecoxib, celecoxib, reference compound], the “Bone mineral density (average ± standard error)” value is 103.0 ± 1.8 mg/cm^2.
